Data as given in patent US12285465B2, “Combined treatment of primary central nervous system lymphoma” (FONDAZIONE CENTRO SAN RAFFAELE, priority 2018, dated 2025).
“Also recorded” adds a separate entry of the source.

Experiments:
[1] = INGRID phase II trial: toxicity graded by NCI-NCIC CTC version 3.0; type: in vivo; conditions: of 132 delivered courses; fever, chills, arterial hypertension
Method: Treatment side effects were assessed separately for each chemotherapy course and graded according to the NCI-NCIC CTC version 3·0^19. The worst toxicity per organ, per patient was considered. Periodic specialist controls, ECG, troponin levels determination, and echocardiography were performed before every treatment course to exclude cardiac toxicity. The impact of treatment on cognitive functions was not assessed by ad hoc tests.
Duration of response, PFS, OS, and tolerability were the secondary endpoints. Duration of response was defined as the time from the first assessment that documents the response to the date of relapse, date of death from any cause or date of the last visit of follow-up. PFS was defined as the interval between the time of entry onto trial and failure (relapsing or progressive disease), death from any cause or date of the last visit of follow-up. OS was defined as the time from entry onto trial until death from any cause or date of the last visit of follow-up. Tolerability was defined by of grade 3-4 AEs according to NCI CTCAE^19.

[2] = system: BBB permeability in lymphomatous lesions and perilesional area; assay: BBB permeability assessed by DCE-MRI (Ktrans); type: in vivo, human; conditions: tumoral/peritumoral areas
Method: Variations induced by NGR-hTNF in the BBB permeability at the level of the lymphomatous lesions, areas surrounding the tumor (perilesional area) and in the normal-appearing brain parenchyma were assessed by DCE-MRI. DCE acquisition followed a standard protocol^28 that included also conventional T1, T2, Flair, DWI and Dynamic Susceptibility Contrast Perfusion (DSC) sequences. […] In cases of multiple lesions, the largest one was considered. Post-processing of DCE-MRI was performed using Olea software (La Ciotat, France); all dynamic images were corrected for motion artifacts and co-registered to a volumetric post-contrast T1 sequences. Results were expressed as Ktrans values normalized using contralateral white matter. Ktrans obtained after the 2nd course (measured after NGR-hTNF infusion) were compared with those obtained after the 1st course (without NGR-hTNF) to establish the effect of TNF on BBB permeabilization. Statistically significance was assessed by Wilcoxon matched pairs test.

NGR-hTNF: genetically engineered protein consisting of CNGRCG fused to the N-terminus of human tumor necrosis factor alpha (SEQ ID No. 1), expressed in E. coli
TNF Infusion reaction Grade 1-2 (number of courses) [1]: nine
vascular permeability (DCE-MRI, SPECT) [2]: selectively increased vascular permeability in tumoral/peritumoral areas; also recorded: vascular permeability was increased
